This passage reports Kd results from paper PMC3478540 (Diabetes, 2012).

The target in this assay is GRP78 in membrane fractions of mouse liver (mouse (endogenous in liver), UniProt P20029 20-655). Description: radioligand binding.
GRP78 in membrane fractions of mouse liver, sequence (P20029 20-655): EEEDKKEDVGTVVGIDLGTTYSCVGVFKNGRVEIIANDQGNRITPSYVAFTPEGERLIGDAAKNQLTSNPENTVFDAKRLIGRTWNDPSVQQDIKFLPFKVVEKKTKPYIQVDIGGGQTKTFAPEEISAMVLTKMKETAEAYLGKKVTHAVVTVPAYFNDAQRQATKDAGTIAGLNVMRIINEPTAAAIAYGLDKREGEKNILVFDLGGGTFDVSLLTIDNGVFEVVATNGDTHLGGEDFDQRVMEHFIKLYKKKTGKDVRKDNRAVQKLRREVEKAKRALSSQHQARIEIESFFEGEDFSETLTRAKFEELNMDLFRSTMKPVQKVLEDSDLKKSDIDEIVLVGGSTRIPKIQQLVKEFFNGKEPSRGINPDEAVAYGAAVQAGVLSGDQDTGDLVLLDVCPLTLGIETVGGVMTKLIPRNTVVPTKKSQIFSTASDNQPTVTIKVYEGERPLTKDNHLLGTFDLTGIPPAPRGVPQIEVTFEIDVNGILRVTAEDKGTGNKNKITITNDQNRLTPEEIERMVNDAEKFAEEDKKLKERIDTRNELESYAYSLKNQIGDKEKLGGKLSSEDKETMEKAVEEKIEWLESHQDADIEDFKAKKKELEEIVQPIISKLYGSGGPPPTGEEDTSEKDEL

B1: ^125I-vaspin (iodinated rhVaspin) (natural protein, human, UniProt Q8IW75 21-414, looked up)
chain: LKPSFSPRNYKALSEVQGWKQRMAAKELARQNMDLGFKLLKKLAFYNPGRNIFLSPLSISTAFSMLCLGAQDSTLDEIKQGFNFRKMPEKDLHEGFHYIIHELTQKTQDLKLSIGNTLFIDQRLQPQRKFLEDAKNFYSAETILTNFQNLEMAQKQINDFISQKTHGKINNLIENIDPGTVMLLANYIFFRARWKHEFDPNVTKEEDFFLEKNSSVKVPMMFRSGIYQVGYDDKLSCTILEIPYQKNITAIFILPDEGKLKHLEKGLQVDTFSRWKTLLSRRVVDVSVPRLHMTGTFDLKKTLSYIGVSKIFEEHGDLTKIAPHRSLKVGEAVHKAELKMDERGTEGAAGTGAQTLPMETPLVVKIDKPYLLLIYSEKIPSVLFLGKIVNPIGK
modifications: 125I-iodinated, residues not stated
In general, Kd refers to the concentration at which binding is half-saturated. A higher Kd goes with a looser complex. Molecule B1 yielded a dissociation constant (Kd) of 22.2 nM.
